The text below walks through data of US20230242922.

What all share (assay): cell_activity
Data set [1] concerns T1, AN197 TALEN pair (synthetic construct).
T1 sequence: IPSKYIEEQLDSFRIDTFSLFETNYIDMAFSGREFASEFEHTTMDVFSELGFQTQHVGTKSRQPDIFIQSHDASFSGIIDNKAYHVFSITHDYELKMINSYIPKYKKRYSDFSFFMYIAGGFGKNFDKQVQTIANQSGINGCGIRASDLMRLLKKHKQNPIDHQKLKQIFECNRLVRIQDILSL
The settings on record: primary T cells, GCD.

In data set [2] the test system is T2, AN197 TALEN, purified, mPEG-5K-SH PEGylated (synthetic construct).
T2 sequence: T1 sequence
The settings on record: HEK293FT.

Data set [3] concerns the target FokI TALEN pair (Flavobacterium okeanokoites) (UniProt P14870). The settings on record: by Sanger sequencing.
UniProt P14870, sequence (P14870 384-579): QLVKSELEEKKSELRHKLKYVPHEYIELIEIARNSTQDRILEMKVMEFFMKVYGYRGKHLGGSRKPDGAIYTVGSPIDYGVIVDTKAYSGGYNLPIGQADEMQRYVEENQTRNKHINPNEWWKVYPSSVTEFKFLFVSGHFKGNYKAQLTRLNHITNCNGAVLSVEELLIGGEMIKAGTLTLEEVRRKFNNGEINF

Substance B2M target returned an activity in data set [1] greater than 80 % editing.
On the same count and under the same terms, as for PD-1 target, the figure is greater than 80 % editing; as for TIM3 target, greater than 80 % editing.
Take AAVS1 locus TALEN target: the activity in data set [1] is greater than 80 % editing; in data set [2] it was less than 75 % editing; in data set [3], 100 % editing.
LAG3 target had an activity in data set [1] greater than 80 % editing.
